Experimental data published in the supplement of paper PMC11246515.
± gives the standard deviation of the averaged measurements.

Assay: total protein half-life in vivo (active degradation + dilution); higher = more stable protein
[1] = E. coli NCM3722 delta-clpP delta-lon delta-hslV, growth: N-lim chemostat, doubling time 6 h
[2] = E. coli NCM3722 delta-clpP, growth: N-lim chemostat, doubling time 6 h
[3] = E. coli NCM3722 delta-lon, growth: N-lim chemostat, doubling time 6 h
[4] = E. coli NCM3722 delta-smpB, growth: N-lim chemostat, doubling time 6 h
[5] = wild type E. coli NCM3722, growth: C-lim chemostat, doubling time 3 h
[6] = wild type E. coli NCM3722, growth: C-lim chemostat, doubling time 6 h
[7] = wild type E. coli NCM3722, growth: C-lim chemostat, doubling time 12 h
[8] = wild type E. coli NCM3722, growth: N-lim chemostat, doubling time 6 h
[9] = wild type E. coli NCM3722, growth: P-lim chemostat, doubling time 6 h
[10] = wild type E. coli NCM3722, growth: P-lim chemostat, doubling time 12 h
[11] = E. coli NCM3722 delta-hslV, growth: N-lim chemostat, doubling time 6 h
[12] = wild type E. coli NCM3722, growth: N-lim chemostat, doubling time 12 h

Sequence	total protein half-life in vivo [1] [h]	total protein half-life in vivo [2] [h]	total protein half-life in vivo [3] [h]	total protein half-life in vivo [4] [h]	total protein half-life in vivo [5] [h]	total protein half-life in vivo [6] [h]	total protein half-life in vivo [7] [h]	total protein half-life in vivo [8] [h]	total protein half-life in vivo [9] [h]	total protein half-life in vivo [10] [h]	total protein half-life in vivo [11] [h]	total protein half-life in vivo [12] [h]
MKKISLPKIGIRPVIDGRRMGVRESLEEQTMNMAKATAALLTEKLRHACGAAVECVISDTCIAGMAEAAACEEKFSSQNVGLTITVTPCWCYGSETIDMDPTRPKAIWGFNGTERPGAVYLAAALAAHSQKGIPAFSIYGHDVQDADDTSIPADVEEKLLRFARAGLAVASMKGKSYLSLGGVSMGIAGSIVDHNFFESWLGMKVQAVDMTELRRRIDQKIYDEAELEMALAWADKNFRYGEDENNKQYQRNAEQSRAVLRESLLMAMCIRDMMQGNSKLADIGRVEESLGYNAIAAGFQGQRHWTDQYPNGDTAEAILNSSFDWNGVREPFVVATENDSLNGVAMLMGHQLTGTAQVFADVRTYWSPEAIERVTGHKLDGLAEHGIIHLINSGSAALDGSCKQRDSEGNPTMKPHWEISQQEADACLAATEWCPAIHEYFRGGGYSSRFLTEGGVPFTMTRVNIIKGLGPVLQIAEGWSVELPKDVHDILNKRTNSTWPTTWFAPRLTGKGPFTDVYSVMANWGANHGVLTIGHVGADFITLASMLRIPVCMHNVEETKVYRPSAWAAHGMDIEGQDYRACQNYGPLYKR	4.26 ± 0.39	4.38	3.06	3.21	3.42 ± 0.12	5.12 ± 0.1	9.64 ± 0.84	2.78 ± 0.2	5.22 ± 0.62	10.9 ± 1.1		
MKKKIESYQGAAGGWGAVKSVANAVRKQMDIRQDVIAMFDMNKPEGFDCPGCAWPDPKHSASFDICENGAKAIAWEVTDKQVNASFFAENTVQSLLTWGDHELEAAGRLTQPLKYDAVSDCYKPLSWQQAFDEIGARLQSYSDPNQVEFYTSGRTSNEAAFLYQLFAREYGSNNFPDCSNMCHEPTSVGLAASIGVGKGTVLLEDFEKCDLVICIGHNPGTNHPRMLTSLRALVKRGAKMIAINPLQERGLERFTAPQNPFEMLTNSETQLASAYYNVRIGGDMALLKGMMRLLIERDDAASAAGRPSLLDDEFIQTHTVGFDELRRDVLNSEWKDIERISGLSQTQIAELADAYAAAERTIICYGMGITQHEHGTQNVQQLVNLLLMKGNIGKPGAGICPLRGHSNVQGDRTVGITEKPSAEFLARLGERYGFTPPHAPGHAAIASMQAICTGQARALICMGGNFALAMPDREASAVPLTQLDLAVHVATKLNRSHLLTARHSYILPVLGRSEIDMQKNGAQAVTVEDSMSMIHASRGVLKPAGVMLKSECAVVAGIAQAALPQSVVAWEYLVEDYDRIRNDIEAVLPEFADYNQRIRHPGGFHLINAAAERRWMTPSGKANFITSKGLLEDPSSAFNSKLVMATVRSHDQYNTTIYGMDDRYRGVFGQRDVVFMSAKQAKICRVKNGERVNLIALTPDGKRSSRRMDRLKVVIYPMADRSLVTYFPESNHMLTLDNHDPLSGIPGYKSIPVELEPSN	5.48 ± 0.53	3.76 ± 1.3	4.01 ± 0.03	3.52 ± 0.085	2.35 ± 0.34	2.95 ± 0.35	3.6 ± 0.45	3.5 ± 0.52	3.7 ± 0.2	4.31 ± 0.17	4.01 ± 0.19	4.87 ± 1.3
MKKLINDVQDVLDEQLAGLAKAHPSLTLHQDPVYVTRADAPVAGKVALLSGGGSGHEPMHCGYIGQGMLSGACPGEIFTSPTPDKIFECAMQVDGGEGVLLIIKNYTGDILNFETATELLHDSGVKVTTVVIDDDVAVKDSLYTAGRRGVANTVLIEKLVGAAAERGDSLDACAELGRKLNNQGHSIGIALGACTVPAAGKPSFTLADNEMEFGVGIHGEPGIDRRPFSSLDQTVDEMFDTLLVNGSYHRTLRFWDYQQGSWQEEQQTKQPLQSGDRVIALVNNLGATPLSELYGVYNRLTTRCQQAGLTIERNLIGAYCTSLDMTGFSITLLKVDDETLALWDAPVHTPALNWGK	5.88 ± 0.29	5.22 ± 0.51		5.33 ± 0.57	2.78 ± 0.28	5.7 ± 0.2	10.4 ± 0.73	5.72 ± 0.15	5.75 ± 0.93	12.5 ± 0.43	5.21 ± 0.23	10.3 ± 1.2
MKKLKINYLFIGILALLLAVALWPSIPWFGKADNRIAAIQARGELRVSTIHTPLTYNEINGKPFGLDYELAKQFADYLGVKLKVTVRQNISQLFDDLDNGNADLLAAGLVYNSERVKNYQPGPTYYSVSQQLVYKVGQYRPRTLGNLTAEQLTVAPGHVVVNDLQTLKETKFPELSWKVDDKKGSAELMEDVIEGKLDYTIADSVAISLFQRVHPELAVALDITDEQPVTWFSPLDGDNTLSAALLDFFNEMNEDGTLARIEEKYLGHGDDFDYVDTRTFLRAVDAVLPQLKPLFEKYAEEIDWRLLAAIAYQESHWDAQATSPTGVRGMMMLTKNTAQSLGITDRTDAEQSISGGVRYLQDMMSKVPESVPENERIWFALAAYNMGYAHMLDARALTAKTKGNPDSWADVKQRLPLLSQKPYYSKLTYGYARGHEAYAYVENIRKYQISLVGYLQEKEKQATEAAMQLAQDYPAVSPTELGKEKFPFLSFLSQSSSNYLTHSPSLLFSRKGSEEKQN [P0AGC5]	4.75							1.64		3.13		
MKKLVATAPRVAALVEYEDRAILANEVKIRVRFGAPKHGTEVVDFRAASPFIDEDFNGEWQMFTPRPADAPRGIEFGKFQLGNMVVGDIIECGSDVTDYAVGDSVCGYGPLSETVIINAVNNYKLRKMPQGSSWKNAVCYDPAQFAMSGVRDANVRVGDFVVVVGLGAIGQIAIQLAKRAGASVVIGVDPIAHRCDIARRHGADFCLNPIGTDVGKEIKTLTGKQGADVIIETSGYADALQSALRGLAYGGTISYVAFAKPFAEGFNLGREAHFNNAKIVFSRACSEPNPDYPRWSRKRIEETCWELLMNGYLNCEDLIDPVVTFANSPESYMQYVDQHPEQSIKMGVTF	6.29 ± 0.3											
MKKLVLAALLASFTFGASAAEKINFGVSATYPPFESIGANNEIVGFDIDLAKALCKQMQAECTFTNHAFDSLIPSLKFRKYDAVISGMDITPERSKQVSFTTPYYENSAVVIAKKDTYKTFADLKGKRIGMENGTTHQKYIQDQHPEVKTVSYDSYQNAFIDLKNGRIDGVFGDTAVVNEWLKTNPQLGVATEKVTDPQYFGTGLGIAVRPDNKALLEKLNNALAAIKADGTYQKISDQWFPQ	4.29 ± 0.69	5.1 ± 0.92	6.25 ± 0.23	5.73 ± 0.62	2.99 ± 0.12	6.13 ± 0.83	9.32 ± 1.2	5.47 ± 0.24	5.3886 ± 0.0029	11 ± 1.2	5.91 ± 0.093	11.9 ± 0.32
MKKNSYLLSCLAIAVSSACHAEVLTYPDPLGSSQSDFGGTGLLQMPNARIAPEGEFSVNYRDNDQYRFYSTSVALFPWLEGTIRYTDVRTRKYSQWEDFSGDQSYKDKSFDFKLRLWEEGYWLPQVAFGKRDIAGTGLFDGEYLVASKQAGPFDFTLGMAWGYAGNAGNITNPFCRVSDKYCHRAESHDAGDISFSDIFRGPASIFGGIEYQTPWNPLRLKLEYDGNNYQNDFAGKLPQASHFNVGAVYRAASWADLNLSYERGNTLMFGFTLRTNFNDLRPALRDTPKPAYQPAPESEGLQYTTVANQLTALKYNAGFDAPEIQLRDKTLYMSGQQYKYRDSREAVDRANRILVNNLPQGVEKISVTQKREHMAMVTTETDVASLRKQLAGTAPGQSEPLQQQRVEAEDLSAFGRGYRIREDRFSYSFNPTLSQSLGGPEDFYMFQLGLMSSARYWFTDHLLLDGGIFTNIYNNYDKFKSSLLPADSTLPRVRTHIRDYVRNDVYLNNLQANYFADLGNGFYGQVYGGYLETMYAGVGSELLYRPLDACWALGVDVNYVKQRDWDNMMRFTDYSTPTGFVTAYWNPPTLNGVLMKLSVGQYLAKDKGATIDVAKRFDSGVAVGVWAAISNVSKDDYGEGGFSKGFYISIPFDLMTIGPNRNRAVVSWTPLTRDGGQMLSRKYQLYPMTAEREVPVGQ	4.97 ± 0.12				3.09		10.3	6.71		> 16	6.08 ± 0.65	
MKKPNHSGSGQIRIIGGQWRGRKLPVPDSPGLRPTTDRVRETLFNWLAPVIVDAQCLDCFAGSGALGLEALSRYAAGATLIEMDRAVSQQLIKNLATLKAGNARVVNSNAMSFLAQKGTPHNIVFVDPPFRRGLLEETINLLEDNGWLADEALIYVESEVENGLPTVPANWSLHREKVAGQVAYRLYQREAQGESDAD [P0ADX9]	5.34 ± 0.45	4.8 ± 0.15	5.32 ± 0.09	5.18 ± 0.6	3.08 ± 0.15	5.57 ± 0.19	10.1 ± 1.5	4.49 ± 0.68	5.1 ± 0.26	11.1 ± 0.63	4.49 ± 0.13	12.5
